Assay results as given in article PMC3581573.

Molecular target: Flag-HsPRMT5 (UniProt O14744)
Assay: biotinylated peptide pull-down on streptavidin beads
Conditions: reference: unmodified H4 peptide; sites S1

histone H4 1-20 (from UniProt P62805) H4 S1ph peptide
binding against the reference: lost
